The values below come from patent US20190218277A1 (Chugai, published 2019).

The target of test [1] is T1, Soluble human FcRn (human, UniProt P55899 24-297; P61769 21-119).
T1 construct: also called Biotinylated-FcRn
In words: SPR (Biacore T200, pH 7.4, 25 °C): biotinylated FcRn captured on a CAP chip; antibody injected at 100 nM alone (Ab alone) or as 1:1 complex with trimeric CD154 (CD154 IC); binding level / capture level. In general terms: SPR reads the build-up and loss of mass on a sensor chip optically.

Test [2] addresses T2, human FcγRIIa (167H) (human, UniProt P12318 36-217).
T2 construct: also called human FcγR2a allelic variant 167H
T2 sequence: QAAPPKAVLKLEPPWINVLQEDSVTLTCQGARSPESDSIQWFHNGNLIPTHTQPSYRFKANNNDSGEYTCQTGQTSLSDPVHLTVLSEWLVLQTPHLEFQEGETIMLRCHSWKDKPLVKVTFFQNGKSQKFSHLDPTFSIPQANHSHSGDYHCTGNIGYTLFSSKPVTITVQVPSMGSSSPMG
Briefly: SPR (Biacore T200, pH 7.4, 25 °C): His-tagged FcγR captured by anti-His antibody; antibody injected at 100 nM alone (Ab alone) or as 1:1 complex with trimeric CD154 (CD154 IC); binding level / capture level [B].

Test [3] concerns the target T3, human FcγRIIb (human, UniProt P31994 43-217).
T3 construct: also called human FcγR2b
T3 sequence: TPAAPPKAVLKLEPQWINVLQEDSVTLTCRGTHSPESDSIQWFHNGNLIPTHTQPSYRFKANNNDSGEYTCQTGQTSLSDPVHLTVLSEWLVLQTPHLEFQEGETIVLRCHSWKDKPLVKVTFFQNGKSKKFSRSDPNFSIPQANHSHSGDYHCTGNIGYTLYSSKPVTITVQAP
Briefly: SPR (Biacore T200, pH 7.4, 25 °C): His-tagged FcγR captured by anti-His antibody; antibody injected at 100 nM alone (Ab alone) or as 1:1 complex with trimeric CD154 (CD154 IC); binding level / capture level [D].

Test [4] addresses T4, mouse FcγRIV (mouse, UniProt A0A0B4J1G0 21-203).
T4 construct: also called mFcγRIV; mouse FcγR4
T4 sequence: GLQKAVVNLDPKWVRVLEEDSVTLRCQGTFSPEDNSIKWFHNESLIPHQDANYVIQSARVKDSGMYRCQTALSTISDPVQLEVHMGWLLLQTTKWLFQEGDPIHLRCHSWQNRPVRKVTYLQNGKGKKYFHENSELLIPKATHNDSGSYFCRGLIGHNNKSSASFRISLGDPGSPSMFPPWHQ
The test is described as above.

T1 sequence (P55899 24-297 limits assumed, chain 1 of 2): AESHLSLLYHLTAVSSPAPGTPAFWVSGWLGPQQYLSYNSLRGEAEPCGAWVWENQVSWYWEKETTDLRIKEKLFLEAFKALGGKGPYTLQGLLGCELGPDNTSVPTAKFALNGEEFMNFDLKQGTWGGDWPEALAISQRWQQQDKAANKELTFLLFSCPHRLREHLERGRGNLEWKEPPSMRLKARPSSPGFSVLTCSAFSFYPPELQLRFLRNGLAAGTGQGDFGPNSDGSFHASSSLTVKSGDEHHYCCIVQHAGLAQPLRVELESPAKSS
T1 sequence (P61769 21-119 limits assumed, chain 2 of 2): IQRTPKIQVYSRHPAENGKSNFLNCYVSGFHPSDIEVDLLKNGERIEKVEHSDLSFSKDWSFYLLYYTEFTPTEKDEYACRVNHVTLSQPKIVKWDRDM

B1: Anti-CD154 antibody (SLAPH0336a/SLAPL0336a) with Fc variant LALA+ACT3 (SG1044) (antibody)
heavy: EVQLVESGGGSVKPGGSLKLSCAASGFTFSDHYMYWVRQTPEKRLEWVAIISGGGSYTSYPDSMKGRFTISRDNAKNILHLQMSSLKSEDTAMYYCTRESNGKPGFAYWGQGTLVTVSAASTKGPSVFPLAPSSKSTSGGTAALGCLVKDYFPEPVTVSWNSGALTSGVHTFPAVLQSSGLYSLSSVVTVPSSSLGTQTYICNVNHKPSNTKVDKRVEPKSCDKTHTCPPCPAPEAAGGPSVFLFPPKPKDTLMISRTPEVTCVVVDVSHEDPEVKFNWYVDGVEVHNAKTKPREEQYNSTYRVVSVLTVLHQDWLNGKEYKCKVSNKALPAPIEKTISKAKGQPREPQVYTLPPSREEMTKNQVSLTCLVKGFYPSDIAVEWESNGQPENNYKTTPPVLDSDGSFFLYSKLTVDKSRWQQGNVFSCSVLHEALHAHTTRKELSLSP
light: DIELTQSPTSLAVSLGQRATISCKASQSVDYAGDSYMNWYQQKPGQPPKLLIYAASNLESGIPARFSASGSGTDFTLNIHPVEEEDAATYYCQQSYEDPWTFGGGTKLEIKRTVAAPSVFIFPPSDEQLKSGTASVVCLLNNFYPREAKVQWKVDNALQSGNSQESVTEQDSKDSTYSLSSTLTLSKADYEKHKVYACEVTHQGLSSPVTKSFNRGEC
As for B1, the binding result in test [1] was “binds”; in test [2] it was “no binding (tested: 100 nM)”; in test [3], “no binding (tested: 100 nM)”; in test [4], “no binding (tested: 100 nM)”.

B2: Anti-CD154 antibody (SLAPH0336a/SLAPL0336a) with Fc variant LALA+ACT5+KAES (SG1106) (antibody)
heavy: EVQLVESGGGSVKPGGSLKLSCAASGFTFSDHYMYWVRQTPEKRLEWVAIISGGGSYTSYPDSMKGRFTISRDNAKNILHLQMSSLKSEDTAMYYCTRESNGKPGFAYWGQGTLVTVSAASTKGPSVFPLAPSSKSTSGGTAALGCLVKDYFPEPVTVSWNSGALTSGVHTFPAVLQSSGLYSLSSVVTVPSSSLGTQTYICNVNHKPSNTKVDKRVEPKSCDKTHTCPPCPAPEAAGGPSVFLFPPKPKDTLMISRTPEVTCVVVDVSHEDPEVKFNWYVDGVEVHNAKTKPREEQYNSTYRVVSVLTVLHQDWLNGKEYKCKVSNAALPAPISKTISKAKGQPREPQVYTLPPSREEMTKNQVSLTCLVKGFYPSDIAVEWESNGQPENNYKTTPPVLDSDGSFFLYSKLTVDKSRWQQGNVFSCSVLHEALHAHYTRKELSLSP
light: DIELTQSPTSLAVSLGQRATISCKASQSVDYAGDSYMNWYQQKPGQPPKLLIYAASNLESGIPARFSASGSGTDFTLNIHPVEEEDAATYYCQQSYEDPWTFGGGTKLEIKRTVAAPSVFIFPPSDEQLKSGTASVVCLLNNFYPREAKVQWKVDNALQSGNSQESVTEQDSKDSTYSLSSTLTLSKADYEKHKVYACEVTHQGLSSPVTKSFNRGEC
notes: also called LALA+KAES+ACT5
On to B2, for which the binding result in test [1] is listed as “binds”; in test [2], “no binding (tested: 100 nM)”; in test [3], “no binding (tested: 100 nM)”; in test [4] it was “no binding (tested: 100 nM)”.

B3: Anti-CD154 antibody (SLAPH0336a/SLAPL0336a) with Fc variant LALA+ACT3+KAES (SG1105) (antibody)
heavy: EVQLVESGGGSVKPGGSLKLSCAASGFTFSDHYMYWVRQTPEKRLEWVAIISGGGSYTSYPDSMKGRFTISRDNAKNILHLQMSSLKSEDTAMYYCTRESNGKPGFAYWGQGTLVTVSAASTKGPSVFPLAPSSKSTSGGTAALGCLVKDYFPEPVTVSWNSGALTSGVHTFPAVLQSSGLYSLSSVVTVPSSSLGTQTYICNVNHKPSNTKVDKRVEPKSCDKTHTCPPCPAPEAAGGPSVFLFPPKPKDTLMISRTPEVTCVVVDVSHEDPEVKFNWYVDGVEVHNAKTKPREEQYNSTYRVVSVLTVLHQDWLNGKEYKCKVSNAALPAPISKTISKAKGQPREPQVYTLPPSREEMTKNQVSLTCLVKGFYPSDIAVEWESNGQPENNYKTTPPVLDSDGSFFLYSKLTVDKSRWQQGNVFSCSVLHEALHAHTTRKELSLSP
light: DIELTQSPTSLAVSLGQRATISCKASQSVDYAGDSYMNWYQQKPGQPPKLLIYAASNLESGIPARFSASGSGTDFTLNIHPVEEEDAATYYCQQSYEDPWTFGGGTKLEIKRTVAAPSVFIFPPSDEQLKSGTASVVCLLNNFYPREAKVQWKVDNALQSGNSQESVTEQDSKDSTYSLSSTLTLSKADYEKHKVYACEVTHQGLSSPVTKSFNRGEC
notes: also called LALA+KAES+ACT3
For the molecule B3, the binding result in test [1] is “binds”; in test [2], “no binding (tested: 100 nM)”; in test [3] it was “no binding (tested: 100 nM)”; in test [4] it was “no binding (tested: 100 nM)”.

B4: Anti-CD154 antibody (SLAPH0336a/SLAPL0336a) with Fc variant LALA+ACT5 (SG1045) (antibody)
heavy: EVQLVESGGGSVKPGGSLKLSCAASGFTFSDHYMYWVRQTPEKRLEWVAIISGGGSYTSYPDSMKGRFTISRDNAKNILHLQMSSLKSEDTAMYYCTRESNGKPGFAYWGQGTLVTVSAASTKGPSVFPLAPSSKSTSGGTAALGCLVKDYFPEPVTVSWNSGALTSGVHTFPAVLQSSGLYSLSSVVTVPSSSLGTQTYICNVNHKPSNTKVDKRVEPKSCDKTHTCPPCPAPEAAGGPSVFLFPPKPKDTLMISRTPEVTCVVVDVSHEDPEVKFNWYVDGVEVHNAKTKPREEQYNSTYRVVSVLTVLHQDWLNGKEYKCKVSNKALPAPIEKTISKAKGQPREPQVYTLPPSREEMTKNQVSLTCLVKGFYPSDIAVEWESNGQPENNYKTTPPVLDSDGSFFLYSKLTVDKSRWQQGNVFSCSVLHEALHAHYTRKELSLSP
light: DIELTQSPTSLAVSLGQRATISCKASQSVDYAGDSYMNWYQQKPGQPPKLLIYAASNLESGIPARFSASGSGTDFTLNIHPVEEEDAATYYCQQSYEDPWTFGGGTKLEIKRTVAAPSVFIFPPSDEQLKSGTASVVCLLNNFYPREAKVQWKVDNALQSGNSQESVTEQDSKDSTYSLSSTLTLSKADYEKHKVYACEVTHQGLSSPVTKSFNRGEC
In the case of B4, the binding result in test [1] is given as “binds”; in test [2] it was “no binding (tested: 100 nM)”; in test [3] it was “no binding (tested: 100 nM)”; in test [4], “no binding (tested: 100 nM)”.
